Source: the supplement of paper PMC7877785
± gives the uncertainty stated by the source.

Assay: self-splicing fitness, log relative to wild type (ln ratio); higher = more splicing; Tetrahymena group I intron in knt gene, E. coli kanamycin selection, DiMSum; sequences stand for … in CUCUCU…GGAGGGAAAAGUUAUCAGGCAUGCACCUGGUAGCUAGUCUUUAAACCAAUAGAUUGCAUCGGUUUAAAAGGCAAGACCGUCAAAUUGCGGGAAAGGGGUCAACAGCCGUUCAGUACCAAGUCUCAGGGGAAACUUUGAGAUGGCCUUGCAAAGGGUAUGGUAAUAAGCUGACGGACAUGGUCCUAACCACGCAGCCAAGUCCUAAGUCAACAGAUCUUCUGUUGAUAUGGAUGCAGUUCACAGACUAAAUGUCGGUCGGGGAAGAUGUAUUCUUCUCAUAAGAUAUAGUCGGACCUCUCCUUAAUGGGAGCUAGCGGAUGAAGUGAUGCAACACUGGAGCCGCUGGGAACUAAUUUGUAUGCGAAAGUAUAUUGAUUAGUUUUGGAGUACUCGUGGUCG
Method in brief: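 A randomised library covering all eight P1ex-region intron nucleotides was built with the intron in the knt kanamycin-resistance gene on pET-22b(+) and held in E. coli BL21(DE3). Cells were grown overnight at 37°C or 30°C on LB agar, with or without 25 μg/mL kanamycin, plus 100 μg/mL carbenicillin, 50 μM IPTG and 0.2% rhamnose, and pooled colonies were amplicon-sequenced on an Illumina HiSeq 2500. DiMSum fitness is the error-weighted combination of wild-type-normalised replicate fold changes, kanamycin versus none.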

Sequence	self-splicing fitness (ln) (30 °C)	self-splicing fitness (ln) (37 °C)
CAGUAGCAAUAUUACGGUCG	-0.204 ± 0.093	0.084 ± 0.1
CAGUAGCAAUAUUACGGUGA	-4.04 ± 0.31	-2.58 ± 0.24
CAGUAGCAAUAUUACGGUUC	-2.7 ± 0.25	-2.53 ± 0.29
CAGUAGCAAUAUUACGGUUU	-3.21 ± 0.22	-0.724 ± 0.15
CAGUAGCAAUAUUACGUAGA	-3.03 ± 0.14	-1.85 ± 0.16
CAGUAGCAAUAUUACGUAGG	-0.361 ± 0.047	-0.0678 ± 0.066
CAGUAGCAAUAUUACGUCCA	-2.28 ± 0.21	-1.83 ± 0.28
CAGUAGCAAUAUUACGUGAG	-1.18 ± 0.067	-0.54 ± 0.12
CAGUAGCAAUAUUACGUGUC	-3.74 ± 0.27	-3.17 ± 0.33
CAGUAGCAAUAUUACGUGUG	-1.64 ± 0.062	-1.23 ± 0.085
CAGUAGCAAUAUUACGUUGG	-1.56 ± 0.075	-0.932 ± 0.1
CAUAAGCAAUAUUACGAGUG	-2.76 ± 0.19	-2.86 ± 0.2
CAUAAGCAAUAUUACGAUUU	-2.47 ± 0.13	-2.19 ± 0.16
CAUAAGCAAUAUUACGCACC	-2.33 ± 0.4	-0.0667 ± 0.48
CAUAAGCAAUAUUACGCACU	-2.12 ± 0.11	-0.81 ± 0.11
CAUAAGCAAUAUUACGCAGA	-2.5 ± 0.17	-2.51 ± 0.17
CAUAAGCAAUAUUACGCCAU	-1.36 ± 0.15	-2.6 ± 0.34
CAUAAGCAAUAUUACGCCGA		-1.71 ± 0.48
CAUAAGCAAUAUUACGCCUA	-2.46 ± 0.35	-0.984 ± 0.21
CAUAAGCAAUAUUACGCGGC	-3.43 ± 0.28	-2.53 ± 0.23
CAUAAGCAAUAUUACGCUAU	-2.93 ± 0.28	-2.99 ± 0.4
CAUAAGCAAUAUUACGCUUG	-3.08 ± 0.29	-3.01 ± 0.25
CAUAAGCAAUAUUACGUACA	-3.09 ± 0.36	-2.37 ± 0.19
CAUAAGCAAUAUUACGUCCG	-0.727 ± 0.081	1.11 ± 0.12

Sequence	self-splicing fitness (ln) (30 °C)	self-splicing fitness (ln) (37 °C)
CAUAAGCAAUAUUACGUCUA	-2.41 ± 0.14	-1.4 ± 0.11
CAUAAGCAAUAUUACGUGUA	-2.6 ± 0.14	-1.77 ± 0.18
CAUAAGCAAUAUUACGUUAC	-3.85 ± 0.24	-2.15 ± 0.24
CAUCAGCAAUAUUACGAACU	-3.37 ± 0.21	-0.499 ± 0.17
CAUCAGCAAUAUUACGACAU	-2.905 ± 0.017	-1.51 ± 0.033
CAUCAGCAAUAUUACGACCU	-2.49 ± 0.31	-1.17 ± 0.29
CAUCAGCAAUAUUACGACGC	-2.37 ± 0.23	-1.23 ± 0.26
CAUCAGCAAUAUUACGACUU	-1.85 ± 0.081	-0.408 ± 0.081
CAUCAGCAAUAUUACGAUAG	-0.277 ± 0.1	-0.0749 ± 0.14
CAUCAGCAAUAUUACGCAGU	-2.02 ± 0.089	-1.78 ± 0.097
CAUCAGCAAUAUUACGCCAA	-1.99 ± 0.25	-1.81 ± 0.24
CAUCAGCAAUAUUACGCCAG	-0.613 ± 0.068	-0.553 ± 0.1
CAUCAGCAAUAUUACGCGAU	-3.69 ± 0.23	-2.86 ± 0.32
CAUCAGCAAUAUUACGCGCU		-1.87 ± 0.29
CAUCAGCAAUAUUACGCUGA	-3.2 ± 0.22	-2.24 ± 0.27
CAUCAGCAAUAUUACGCUGG	-3.62 ± 0.19	-2.97 ± 0.2
CAUCAGCAAUAUUACGGAAG	-0.623 ± 0.054	-0.416 ± 0.069
CAUCAGCAAUAUUACGGGAU		-1.88 ± 0.22
CAUCAGCAAUAUUACGGUUA	-0.767 ± 0.1	-0.102 ± 0.1
CAUCAGCAAUAUUACGUAAA	-1.39 ± 0.11	-0.891 ± 0.13
CAUCAGCAAUAUUACGUAAC	-2.81 ± 0.15	-2.01 ± 0.24
CAUCAGCAAUAUUACGUAAU	-2.56 ± 0.09	-1.4 ± 0.1
CAUCAGCAAUAUUACGUAGA	-1.06 ± 0.065	-0.309 ± 0.088
CAUCAGCAAUAUUACGUAGG	-0.284 ± 0.05	0.412 ± 0.077
